Reference: the supplement of paper PMC9170038

Tested on: MS2 coat protein
Experiment: apparent KD of MS2 coat protein; designed switch direction (-1 OFF switch, 1 ON switch): -1; higher = weaker reporter binding
In short: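 Designed RNA switches sharing common flanks were transcribed on Illumina chips by stalled E. coli RNA polymerase. They were titrated with SNAP-549-labelled MS2 coat protein, from 0.7 or 1.5 nM doubling to 3 µM, in Tris-HCl pH 7.5 buffer with KCl, MgCl2, BSA, DTT, tRNA and Tween-20. Titrations ran without input, with 200 uM small-molecule ligand, or with an oligonucleotide input. The apparent KD of each design is the median over its clusters, after curve-fitting of normalised cluster fluorescence.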

[1] = input ligand: microRNA oligo, concentration not stated
[2] = Eterna round: R95, input ligand: microRNA oligo, concentration not stated

| Sequence | apparent KD of MS2 coat protein (input ligand: FMN 200 uM) [nM] | apparent KD of MS2 coat protein (input ligand: none) [nM] | apparent KD of MS2 coat protein [1] [nM] | apparent KD of MS2 coat protein [2] [nM] |
| --- | --- | --- | --- | --- |
| CCACGACAUGAGGAUCACCCAUGUGAGGAUAUGGCCUGAAAAGCGUGAGCUGAAUCAAUCAGAAGGCGCGUGGG [salish99_ex1_r4_059_4A's] (Eterna round: R97, puzzle: Exclusion 1) | 109 | 42 |  |  |
| CCACGUCCGUACGUAUACUUGUCUCCUGAAAGAAAGGGCACAUGAGGAUCACCCAUGUUUUUGCUCGUCUUAUGAGC [JR_Sensorv2_tov2_Sub714] (Eterna round: R96, puzzle: Sensor v2, turn-off variant 2) | 20.4 | 22.8 | 40.9 |  |
| CCAGAAUGUGUCAGGAUAUCGGGUACCAAUAGCUUCGAGAAGGGACAUGAGGAUCACCCAUGUUCUCGGAGAGA [Eternabot (L2) Solution 76] (Eterna round: R97, puzzle: Brourd's mod of Exclusion 4) | 20.5 | 18 |  |  |
| CCAGCGGACAAAGGAUAUUGCGGUGGCCGGCUCGGCGUACCGAGCCUACAUGAGGAUCACCCAUGUAAGAAGGUUGUCGUAGGA [Mat - Exclusion NG 2 - Mod of JL - D72] (Eterna round: R96, puzzle: Exclusion NG 2) | 72.2 | 22.7 | 12.2 |  |
| CCAGCGUAUGUGAGGAUAUGCUGGUCCUUGGAUCAGCAGAAGGCACAUGAGGAUCACCCAUGUAGAGACGUUGG [JL bmx4 3.43] (puzzle: Brourd's mod of Exclusion 4) |  |  |  | 21.6 |
| CCAGCGUAUGUGAGGAUAUGCUGGUCCUUGGAUCAGCAGAAGGCACAUGAGGAUCACCCAUGUGAUAACGUUGG [JL bmx4 3.39] (puzzle: Brourd's mod of Exclusion 4) |  |  |  | 46.6 |
| CCAGCGUAUGUGAGGAUAUGCUGGUCCUUGGAUCAGCAGAAGGCACAUGAGGAUCACCCAUGUGGAAAAGUUGG [Mod of JL 23 - Jieux - Brourd's mod of Exclusion 4] (Eterna round: R97, puzzle: Brourd's mod of Exclusion 4) | 164 | 27.3 |  |  |
| CCAGCGUGUGUGAGGAUAUGCUGGUCCUUGGAUCAGCAGAAGGCACAUGAGGAUCACCCAUGUGAGGACGUUGG [JL bmx4 3.32] (puzzle: Brourd's mod of Exclusion 4) |  |  |  | 19.9 |
| CCAGCGUGUGUGAGGAUAUGCUGGUCCUUGGAUCAGCAGAAGGCACAUGAGGAUCACCCAUGUGAGUACGUUGG [JL bmx4 3.34] (puzzle: Brourd's mod of Exclusion 4) |  |  |  | 15 |
| CCAGCUCGUGUUAGGAUAUCCAAGCUGCGGCUGGUGGAGAAGGGACAUGAGGAUCACCCAUGUAAUAAAGAAAA [On] (puzzle: Brourd's mod of Exclusion 4) |  |  |  | 21.4 |
| CCAGGCAGUGUGAGGAUAUCGUGGUCCUUGGAUCACGAGAAGGCACAUGAGGAUCACCCAUGUGAAUAGCUUGG [Mat - Exclusion 4 - JL Mod - D100] (puzzle: Brourd's mod of Exclusion 4) |  |  |  | 21.9 |
| CCAGGCAGUGUGAGGAUAUGCUGGUCCUUGGAUCAGCAGAAGGCACAUGAGGAUCACCCAUGUGAAGAGCUUGG [JL bmx4 3.24] (puzzle: Brourd's mod of Exclusion 4) |  |  |  | 24.1 |
| CCAGUGUGCUUCAGGACAUGAGGAUCACCCAUGUUCGCAAAAUAGGAUAUUGGGUGUAGGCCGCGCAAGAAGGGUUAUGCGAAC [Disobeus] (Eterna round: R96, puzzle: Exclusion NG 3) | 117 | 83.4 | 79.8 |  |
| CCAUAAAGGAAGGAUAUGCUAGACGAAAGUCUAGCAGAAGGUCCUACAUGAGGAUCACCCAUGUGGCCUCAUGG [Mat - Exclusion 6 - Eli Mod - D49] (Eterna round: R97, puzzle: Exclusion 6) | 116 | 198 |  |  |
